In patent publication US20250198990A1 (Stanford University, published 2025):
One block for each molecule: values may come before it.

Key:
[1] = target: Wild-type mouse LAG-3 domains 1 and 2 (D1D2) displayed on yeast as N-terminal fusion to Aga2 (mouse; Saccharomyces cerevisiae) (UniProt Q61790); experiment: yeast surface display titration, flow cytometry; monomeric D1D2 on yeast
[2] = target: the molecule itself; experiment: flow-FRET in Expi293 cells; self-association
Description: Flow cytometry-based Förster resonance energy transfer (flow-FRET) assays have been utilized for live cell detection of proximal protein associations at distances <100 Å and was thus used to assess LAG-3 dimerization.
Expi293F cells (ThermoFisher Scientific) were transfected with a CFP:YFP:PEI ratio of 0.5:0.5:3 in a 24-well plate at 37° C. in 8% CO₂. Cells were analyzed after 36 hours using a BD LSRII flow cytometer. The 407 nm violet laser was used to excite CFP and the 488 nm blue laser was used to excite YFP. CFP was detected using a 450/50 bandpass filter after excitation with the violet laser and YFP was detected using a 530/30 bandpass filter after excitation with the blue laser.

Kd [1]: 0.136 nM
Molecule: C9B7W anti-mouse LAG-3 antibody

B1: Full-length mouse LAG-3 fused to CFP or YFP, on Expi293F cells (receptor, UniProt Q61790 24-521, looked up)
chain: GPGKELPVVWAQEGAPVHLPCSLKSPNLDPNFLRRGGVIWQHQPDSGQPTPIPALDLHQGMPSPRQPAPGRYTVLSVAPGGLRSGRQPLHPHVQLEERGLQRGDFSLWLRPALRTDAGEYHATVRLPNRALSCSLRLRVGQASMIASPSGVLKLSDWVLLNCSFSRPDRPVSVHWFQGQNRVPVYNSPRHFLAETFLLLPQVSPLDSGTWGCVLTYRDGFNVSITYNLKVLGLEPVAPLTVYAAEGSRVELPCHLPPGVGTPSLLIAKWTPPGGGPELPVAGKSGNFTLHLEAVGLAQAGTYTCSIHLQGQQLNATVTLAVITVTPKSFGLPGSRGKLLCEVTPASGKERFVWRPLNNLSRSCPGPVLEIQEARLLAERWQCQLYEGQRLLGATVYAAESSSGAHSARRISGDLKGGHLVLVLILGALSLFLLVAGAFGFHWWRKQLLLRRFSALEHGIQPFPAQRKIEELERELETEMGQEPEPEPEPQLEPEPRQL
notes: whole, on cells; Two plasmids, one CFP and one YFP fusion, co-transfected for flow-FRET; also called mLAG-3^CFP; mLAG-3^YFP; not shown: CFP or YFP from pECFP / pEYFP plasmids
binding result [2]: binds
